“Also recorded” adds a separate entry of the source.
B1: DNase 1: DNase 1 (dornase alfa, Genentech), which disrupts NETs (protein, UniProt P24855 23-282, looked up)
Deoxyribonuclease-1: LKIAAFNIQTFGETKMSNATLVSYIVQILSRYDIALVQEVRDSHLTAVGKLLDNLNQDAPDTYHYVVSEPLGRNSYKERYLFVYRPDQVSAVDSYYYDDGCEPCGNDTFNREPAIVRFFSRFTEVREFAIVPLHAAPGDAVAEIDALYDVYLDVQEKWGLEDVMLMGDFNAGCSYVRPSQWSSIRLWTSPTFQWLIPDSADTTATPTHCAYDRIVVAGMLLRGAVVPDSALPFNFQAAYGLSDQLAQAISDHYPVEVMLK

Experiments:
[1] = test system: neutrophil extracellular traps; conditions: Subramanian et al.; cited from earlier work
[2] = test system: PAD4 expressing cells; conditions: Subramanian et al.; cited from earlier work
[3] = test system: NETs; conditions: pre-digestion of NETs with DNase 1, in vitro (Farrera and Fadeel); cited from earlier work
[4] = test system: NETs; experiment: Full-thickness excisional skin wound healing with systemic DNase 1 treatment; type: in vivo, mouse
Procedure: Mice were induced to be diabetic using multiple low dose injections of streptozotocin (STZ). Six to 8-week old male C57BL/6 or PAD4^−/− mice were randomized into treatment groups of either vehicle or STZ according to their blood glucose levels and body weight at baseline. Mice were fasted for 5 hours and then injected with vehicle or STZ (i.p., 50 mg/kg per day, pH 4, dissolved in 0.1 M sodium citrate buffer) for 5 consecutive days. Fed blood glucose level was measured starting 1 week afterwards. Mice with fed blood glucose level above 300 mg/dL were considered diabetic and used for further experiments. Pancreatic islets were stained for insulin using a rabbit polyclonal anti-insulin antibody (1:500, Cell Signaling, Cat. no. 4590).
Full-thickness excisional wounds were made on the dorsal skin under aseptic conditions as described^22. Mice were anesthetized with ketamine and xylazine (100 mg/kg and 10 mg/kg, respectively, i.p.). Hair was removed and the skin was cleaned with 70% ethanol and betadine. A fold of the dorsal skin was then picked up along the midline, placed over dental wax and punched through with a 4-mm disposable sterile biopsy punch (Miltex) such that 2 wounds were generated in one punch. The procedure was repeated, thus 4 wounds were made per mouse. The mice were housed individually after wounding. In experiments involving diabetic mice, all mice were provided ad libitum with antibiotics (2.5% Sulfatrim) in drinking water. Wounds were digitally photographed using a Sony Camcorder and total wound areas were calculated using ImageJ software. Wound area was expressed as a percentage compared to the area on day 0 when the wounds were made.
Neutrophil recruitment and re-epithelialization were examined in H&E-stained sections. Wounds were cut in half, fixed overnight in zinc fixative and embedded in paraffin. The tissue was sectioned at 10 μm and stained with H&E. Images were acquired with the Zeiss Axiovision software using an Axioplan light microscope coupled to a color Zeiss HRc camera.
Normoglycemic and diabetic WT mice, randomized by blood glucose levels before assigning to treatments, were injected with 10 μg i.v. and 50 μg i.p. DNase 1 (dornase alfa, Genentech) 30 min before wounding and then 50 μg i.p. every 12 hours until wound collection on day 3. Control mice were injected with vehicle (8.77 mg/mL sodium chloride and 0.15 mg/mL calcium chloride)^40.

[5] = normoglycemic WT mice, three days post wounding

Row | Molecule | formation of neutrophil extracellular traps [1] | cell killing [2] | clearance of NETs by macrophages [3] | enhancement of re-epithelialization ([4]; STZ-induced diabetic WT mice on antibiotics, day 3 post wounding) [%] | promotion of wound area reduction ([4]; STZ-induced diabetic WT mice on antibiotics, day 3 post wounding, 10 μg i.v. and 50 μg i.p. before wounding, then 50 μg i.p. every 12 hours) [%] | wound healing (wound area reduction and re-epithelialization), in words ([4]; WT mice, diabetic and normoglycemic) | further benefit in wound healing ([4]; diabetic PAD4−/− mice, day 3 post wounding) | enhancement of re-epithelialization [4, 5] [%] | neutrophil recruitment to the wound [4, 5] | wound area versus vehicle [4, 5]
1 | CC(C)(C)n1nnc([C@H](CCCNC(=N)CCl)NC(=O)c2ccc(-c3ccccc3)cc2)n1 [BTT-Cl-amidine, biphenyl tetrazole tert-butyl Cl-amidine] | blocks the formation | enhanced cell killing | – | – | – | – | – | – | – | –
2 | B1 | – | – | accelerated their clearance | > 75 | > 20 | accelerated wound healing; also recorded: facilitated wound area reduction | did not provide further benefits; also recorded: did not provide additional benefits | ~54 | not affected | smaller than in those treated with vehicle

— patent publication US11400139B2, “Anti-NET compounds for treating and preventing fibrosis and for facilitating wound healing” (THE CHILDREN'S MEDICAL CENTER CORPORATION, priority 2015, dated 2022)
